From paper doi:10.1101/785121 (bioRxiv, 2020)
“And” between values parts separate entries of the source, which are not always exact repeats. Identical values can stand only once. Like-named read-outs stand apart in the source and are kept apart here.

How the values were obtained:
[1] = molecular target: Isotopically depleted, truncated, strepII-tagged R. rubrum encapsulated ferritin (wild type) (Rhodospirillum rubrum); assay: native MS
[2] = molecular target: Isotopically depleted, truncated, strepII-tagged R. rubrum encapsulated ferritin (wild type) (Rhodospirillum rubrum); assay: native MS; remark: listed apart in the source
[3] = molecular target: Isotopically depleted, truncated, strepII-tagged R. rubrum encapsulated ferritin (wild type) (Rhodospirillum rubrum); assay: native MS; remark: listed apart in the source
[4] = molecular target: Isotopically depleted, truncated, strepII-tagged R. rubrum encapsulated ferritin (wild type) (Rhodospirillum rubrum); assay: native MS; remark: listed apart in the source
[5] = molecular target: Isotopically depleted, truncated, strepII-tagged R. rubrum encapsulated ferritin (wild type) (Rhodospirillum rubrum); assay: native MS; remark: listed apart in the source
[6] = molecular target: Isotopically depleted, truncated, strepII-tagged R. rubrum encapsulated ferritin (wild type) (Rhodospirillum rubrum); assay: native MS; remark: listed apart in the source
[7] = molecular target: T1, Rhodospirillum rubrum encapsulin (Rhodospirillum rubrum, UniProt Q2RVS0 1-280); assay: SEC
T1 sequence: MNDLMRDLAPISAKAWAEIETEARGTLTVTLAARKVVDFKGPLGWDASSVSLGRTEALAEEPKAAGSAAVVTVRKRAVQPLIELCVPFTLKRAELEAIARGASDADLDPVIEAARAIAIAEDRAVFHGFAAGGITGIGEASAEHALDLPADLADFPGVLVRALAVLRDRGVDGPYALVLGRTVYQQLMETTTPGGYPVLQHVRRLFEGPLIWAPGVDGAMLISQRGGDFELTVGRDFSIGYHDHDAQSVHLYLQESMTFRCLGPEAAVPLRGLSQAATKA

[8] = molecular target: the molecule itself; assay: SEC
[9] = molecular target: the molecule itself; assay: native MS
[10] = molecular target: the molecule itself; assay: native MS; remark: listed apart in the source
[11] = molecular target: the molecule itself; assay: crystal structure

Molecule: Isotopically depleted, truncated, strepII-tagged R. rubrum encapsulated ferritin (wild type) (domain or fragment)
- stoichiometry N [1]: 4
- stoichiometry N [2]: 2
- stoichiometry N [3]: 10
- stoichiometry N [4]: 10
- stoichiometry N [5]: 2
- stoichiometry N [6]: 10

B1: Rhodospirillum rubrum encapsulated ferritin, wild type (natural protein)
chain: MAQSSNSTHEPLEVLKEETVNRHRAIVSVMEELEAVDWYDQRVDASTDPELTAILAHNRDEEKEHAAMTLEWLRRNDAKWAEHLRTYLFTEGPITAIEAADTAGEGSGGDAAKGATAQGDGSLGIGSLKGEAALARPPRL
- binding result [7]: binds
- stoichiometry N [8]: 10 and 4
- stoichiometry N [9]: 2

B2: Rhodospirillum rubrum encapsulated ferritin E34A variant (natural protein)
chain: MAQSSNSTHEPLEVLKEETVNRHRAIVSVMEELAAVDWYDQRVDASTDPELTAILAHNRDEEKEHAAMTLEWLRRNDAKWAEHLRTYLFTEGPITAIEAADTAGEGSGGDAAKGATAQGDGSLGIGSLKGEAALARPPRL
- binding result [7]: binds
- stoichiometry N [10]: 10
- stoichiometry N [8]: 4 and 2

B3: Rhodospirillum rubrum encapsulated ferritin W38G variant (natural protein)
chain: MAQSSNSTHEPLEVLKEETVNRHRAIVSVMEELEAVDGYDQRVDASTDPELTAILAHNRDEEKEHAAMTLEWLRRNDAKWAEHLRTYLFTEGPITAIEAADTAGEGSGGDAAKGATAQGDGSLGIGSLKGEAALARPPRL
- binding result [7]: binds

B4: Rhodospirillum rubrum encapsulated ferritin E31A variant (natural protein)
chain: MAQSSNSTHEPLEVLKEETVNRHRAIVSVMAELEAVDWYDQRVDASTDPELTAILAHNRDEEKEHAAMTLEWLRRNDAKWAEHLRTYLFTEGPITAIEAADTAGEGSGGDAAKGATAQGDGSLGIGSLKGEAALARPPRL
- binding result [7]: binds
- stoichiometry N [10]: 10
- stoichiometry N [8]: 4 and 2

B5: Rhodospirillum rubrum encapsulated ferritin W38A variant (natural protein)
chain: MAQSSNSTHEPLEVLKEETVNRHRAIVSVMEELEAVDAYDQRVDASTDPELTAILAHNRDEEKEHAAMTLEWLRRNDAKWAEHLRTYLFTEGPITAIEAADTAGEGSGGDAAKGATAQGDGSLGIGSLKGEAALARPPRL
- binding result [7]: binds

B6: Truncated, C-terminally hexahistidine-tagged R. rubrum encapsulated ferritin E31A variant (domain or fragment)
chain: MAQSSNSTHEPLEVLKEETVNRHRAIVSVMAELEAVDWYDQRVDASTDPELTAILAHNRDEEKEHAAMTLEWLRRNDAKWAEHLRTYLFTEGPITA
- stoichiometry N [11]: 10

B7: Truncated, C-terminally hexahistidine-tagged R. rubrum encapsulated ferritin E34A variant (domain or fragment)
chain: MAQSSNSTHEPLEVLKEETVNRHRAIVSVMEELAAVDWYDQRVDASTDPELTAILAHNRDEEKEHAAMTLEWLRRNDAKWAEHLRTYLFTEGPITA
- stoichiometry N [11]: 10
